In patent US20210100886A1, “WT1 CANCER ANTIGEN PEPTIDES AND PEPTIDE CONJUGATES COMPRISING THE PEPTIDES” (SUMITOMO DAINIPPON PHARMA CO., LTD., priority 2017, published 2021):
Where no end group is shown, it is not given here.

What follows are molecules tested against endoplasmic reticulum aminopeptidase 1 (UniProt Q9NZ08 1-941, limits assumed) (assay: cell-based or functional assay). Settings: not given.
Sequence of endoplasmic reticulum aminopeptidase 1 (Q9NZ08 whole entry): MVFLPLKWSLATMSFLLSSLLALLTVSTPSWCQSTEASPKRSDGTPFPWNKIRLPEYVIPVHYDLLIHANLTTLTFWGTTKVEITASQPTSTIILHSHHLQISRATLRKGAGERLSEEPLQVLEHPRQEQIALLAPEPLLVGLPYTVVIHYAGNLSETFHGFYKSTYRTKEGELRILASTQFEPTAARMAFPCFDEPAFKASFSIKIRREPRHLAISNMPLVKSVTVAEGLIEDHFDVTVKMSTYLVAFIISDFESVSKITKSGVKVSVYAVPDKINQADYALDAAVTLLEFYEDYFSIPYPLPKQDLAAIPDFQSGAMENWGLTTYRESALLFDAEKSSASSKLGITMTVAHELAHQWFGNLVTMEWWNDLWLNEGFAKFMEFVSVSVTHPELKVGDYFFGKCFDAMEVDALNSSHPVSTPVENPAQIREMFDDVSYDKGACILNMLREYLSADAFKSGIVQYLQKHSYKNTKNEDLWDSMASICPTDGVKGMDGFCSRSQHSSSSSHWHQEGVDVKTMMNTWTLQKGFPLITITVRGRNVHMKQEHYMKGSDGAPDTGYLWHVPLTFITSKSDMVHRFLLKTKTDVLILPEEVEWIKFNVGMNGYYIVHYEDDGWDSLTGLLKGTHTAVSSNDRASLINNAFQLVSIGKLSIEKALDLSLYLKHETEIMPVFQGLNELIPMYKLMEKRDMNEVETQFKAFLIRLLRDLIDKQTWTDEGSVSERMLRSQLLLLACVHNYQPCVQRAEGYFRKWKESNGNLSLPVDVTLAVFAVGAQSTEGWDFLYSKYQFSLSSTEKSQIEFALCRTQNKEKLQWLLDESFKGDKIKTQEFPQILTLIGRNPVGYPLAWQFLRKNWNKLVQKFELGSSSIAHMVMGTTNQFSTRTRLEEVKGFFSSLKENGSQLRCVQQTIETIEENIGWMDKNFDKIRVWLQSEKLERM
In the case of NCYTWNQMNL (also: TFA salt) [peptide NCYTWNQMNL (SEQ ID NO: 61)], the “Production Rate of SEQ ID NO: 4” value is reported as 29.1%.
For SCYTWNQMNL (also: TFA salt) [peptide SCYTWNQMNL (SEQ ID NO: 63)], the “Production Rate of SEQ ID NO: 4” value was 24.6%.
For QCYTWNQMNL (also: TFA salt) [peptide QCYTWNQMNL (SEQ ID NO: 30)], the “Production Rate of SEQ ID NO: 4” value was 32.5%.
With WCYTWNQMNL (also: TFA salt) [peptide WCYTWNQMNL (SEQ ID NO: 66)] the “Production Rate of SEQ ID NO: 4” value was 5.2%.
LCYTWNQMNL (also: TFA salt) [peptide LCYTWNQMNL (SEQ ID NO: 59)] was tested, and the “Production Rate of SEQ ID NO: 4” value was 5.8%.
In the case of TCYTWNQMNL (also: TFA salt) [peptide TCYTWNQMNL (SEQ ID NO: 64)], the “Production Rate of SEQ ID NO: 4” value is reported as 15.6%.
ACYTWNQMNL (also: TFA salt) [peptide ACYTWNQMNL (SEQ ID NO: 55)] was tested, and the “Production Rate of SEQ ID NO: 4” value was 10%.
RCYTWNQMNL (also: TFA salt) [peptide RCYTWNQMNL (SEQ ID NO: 28)] was tested, and the “Production Rate of SEQ ID NO: 4” value was 49.2%.
In the case of HCYTWNQMNL (also: TFA salt) [peptide HCYTWNQMNL (SEQ ID NO: 34)], the “Production Rate of SEQ ID NO: 4” value is reported as 24.4%.
For ECYTWNQMNL (also: TFA salt) [peptide ECYTWNQMNL (SEQ ID NO: 32)], the “Production Rate of SEQ ID NO: 4” value was 32.5%.
YCYTWNQMNL (also: TFA salt) [peptide YCYTWNQMNL (SEQ ID NO: 40)] was tested, and the “Production Rate of SEQ ID NO: 4” value was 35.2%.
For FCYTWNQMNL (also: TFA salt) [peptide FCYTWNQMNL (SEQ ID NO: 38)], the “Production Rate of SEQ ID NO: 4” value was 18.4%.
In the case of CCYTWNQMNL (cysteine pairing not given here; also: TFA salt) [peptide CCYTWNQMNL (SEQ ID NO: 10)], the “Production Rate of SEQ ID NO: 4” value is reported as 20.3%.
For ICYTWNQMNL (also: TFA salt) [peptide ICYTWNQMNL (SEQ ID NO: 58)], the “Production Rate of SEQ ID NO: 4” value was 2.8%.
For KCYTWNQMNL (also: TFA salt) [peptide KCYTWNQMNL (SEQ ID NO: 36)], the “Production Rate of SEQ ID NO: 4” value was 45%.
With VCYTWNQMNL (also: TFA salt) [peptide VCYTWNQMNL (SEQ ID NO: 65)] the “Production Rate of SEQ ID NO: 4” value was 5.1%.
In the case of PCYTWNQMNL (also: TFA salt) [peptide PCYTWNQMNL (SEQ ID NO: 62)], the “Production Rate of SEQ ID NO: 4” value is reported as 11.1%.
For MCYTWNQMNL (also: TFA salt) [peptide MCYTWNQMNL (SEQ ID NO: 60)], the “Production Rate of SEQ ID NO: 4” value was 32.1%.

Each molecule was assayed on HLA-A*24:02 transgenic mouse (assay: In vivo CTL induction in HLA-A*24:02 transgenic mouse (IFNγ ELISPOT assay of splenocytes)). Settings: peptide 280 μg per site, intradermal Montanide ISA 51 VG emulsion, two sites; one week after administration.
Protocol: The HLA-A*24:02 transgenic mouse (C57BL/6CrHLA-A2402/K^b) is a mouse that expresses a chimeric HLA of a human MHC, HLA-A*24:02 with a mouse MHC, H-2K^b.
The solution was diluted with water for injection to a concentration of 10 mg/mL, and then converted to an emulsion by addition of an equal volume of Montanide ISA 51 VG. […] The concentrations of DMSO contained in emulsions were also fixed. One week after the administration, the mice were sacrificed with CO2 gas. Splenocytes were harvested from spleens removed from the mice. For detecting IFNγ-producing splenocytes, an IFNγ ELISPOT assay kit was used. In particular, an ELISPOT plate was treated with an anti-mouse-IFNγ antibody on the day before preparation of the splenocyte samples. On the next day, the plate was blocked by treatment with an RPMI 1640 medium with 10% FBS. To the blocked ELISPOT plate, the splenocyte samples from the HLA-A*24:02 transgenic mice were added at 2.5×10^5 cells/well. For in vitro stimulation of the cells, the peptide of SEQ ID NO: 4 was dissolved in DMSO at a concentration of 40 mg/ml, diluted with RPMI 1640 with 10% FBS to 40 μg/ml, and added to the splenocyte-containing wells at a final concentration of 10 μg/ml. The plate was incubated for 18-20 hours at 37° C. under an atmosphere of 5% CO2. Then, after removal of the culture medium from the wells, the ELISPOT plate was subjected to treatment for cell staining in accordance with the manufacturer's protocol. Stained spots were counted on ImmunoSpot S6 Analyzer (C.T.L.). […]
In the case of ECYTWNQMNL [SEQ ID NO: 32], the “induction of CTLs responsive to the peptide of SEQ ID NO: 4 (IFNγ-producing splenocytes)” value is reported as “induced CTLs responsive to the peptide of SEQ ID NO: 4”.
For FCYTWNQMNL [SEQ ID NO: 38], the “induction of CTLs responsive to the peptide of SEQ ID NO: 4 (IFNγ-producing splenocytes)” value was “induced CTLs responsive to the peptide of SEQ ID NO: 4”.
HCYTWNQMNL [SEQ ID NO: 34] was tested, and the “induction of CTLs responsive to the peptide of SEQ ID NO: 4 (IFNγ-producing splenocytes)” value was “induced CTLs responsive to the peptide of SEQ ID NO: 4”.
With KCYTWNQMNL [SEQ ID NO: 36] the “induction of CTLs responsive to the peptide of SEQ ID NO: 4 (IFNγ-producing splenocytes)” value was “induced CTLs responsive to the peptide of SEQ ID NO: 4”.
With QCYTWNQMNL [SEQ ID NO: 30] the “induction of CTLs responsive to the peptide of SEQ ID NO: 4 (IFNγ-producing splenocytes)” value was “induced CTLs responsive to the peptide of SEQ ID NO: 4”.
For RCYTWNQMNL [SEQ ID NO: 28], the “induction of CTLs responsive to the peptide of SEQ ID NO: 4 (IFNγ-producing splenocytes)” value was “induced CTLs responsive to the peptide of SEQ ID NO: 4”.
In the case of YCYTWNQMNL [SEQ ID NO: 40], the “induction of CTLs responsive to the peptide of SEQ ID NO: 4 (IFNγ-producing splenocytes)” value is reported as “induced CTLs responsive to the peptide of SEQ ID NO: 4”.
